From PMC12277127 (Nucleic Acids Research, 2024) come the findings set out here.

Details in all cases: both partners purified
Test [1] concerns the target T1, Proliferating Cell Nuclear Antigen (UniProt P12004 1-261).
T1 construct: PCNA; plasmid pET16b-PCNA (Addgene #134898); also called PCNA; source: E. coli BL21(DE3), purified (Q Sepharose, heparin, SEC)
Description: SPR; SPRTN PIP-UBZ amine-coupled to a CM5 chip (~1000 RU); analytes monoUb, PCNA, monoUb-PCNA; 50 mM HEPES pH 7.4, 50 mM NaCl, 0.5 mM TCEP-HCl; steady-state affinity model.

The next test concerns the target T2, M1-linked hexaUb (UniProt P0CG48 1-456).
T2 construct: six ubiquitin units head to tail on one chain (M1-linked, linear); plasmid pET-24-hexaUb; also called M1-Ub6; source: E. coli BL21(DE3), purified (HisTrap, SEC)
As to the kind of experiment: ITC; ubiquitin species titrated into the SPRTN fragment (arrows in Supplementary Figures 4A, 4D, 6A); 25°C; 50 mM HEPES pH 7.4, 50 mM NaCl, 0.5 mM TCEP-HCl; one-site binding model; at least 3 repeats, undetectable pairs 1 repeat. (In general: Isothermal titration calorimetry measures the heat released or taken up as one component is titrated into another.)

The target in a further test is T3, M1-linked diUb (UniProt P0CG48 1-152).
T3 construct: two ubiquitin units head to tail on one chain (M1-linked, linear); plasmid pET-47b-N-His-Ub2; The His tag was removed by HRV 3C only for the 15N-labelled M1-Ub2 of the NMR work, as far as the methods tell; also called M1-Ub2; M1-Ub2 WT; source: E. coli BL21(DE3), purified (HisTrap, SEC)
Described as above.

A further test concerns the target T4, M1-linked tetraUb (UniProt P0CG48 1-304).
T4 construct: four ubiquitin units head to tail on one chain (M1-linked, linear); plasmid pET-24-tetraUb; also called M1-Ub4; source: E. coli BL21(DE3), purified (HisTrap, SEC)
The description is as above.

For test [2], the target named is T5, M1-linked tetraUb (His-tagged M1-Ub4) (UniProt P0CG48 1-76; P0CG48 1-76; P0CG48 1-76; P0CG48 1-76).
T5 construct: ubiquitin unit 1 of 4, joined head to tail (M1-linked); ubiquitin unit 2 of 4; ubiquitin unit 3 of 4; ubiquitin unit 4 of 4; source: E. coli BL21(DE3), purified (HisTrap, SEC)
Description: ITC; MicroCal PEAQ-ITC, 25°C, 50 mM HEPES pH 7.4, 50 mM NaCl, 0.5 mM TCEP–HCl; one-site binding model; who was in the syringe is not told.

The target in test [3] is T6, M1-linked diUb (His-tagged M1-Ub2) (UniProt P0CG48 1-76; P0CG48 1-76).
T6 construct: ubiquitin unit 1 of 2 (distal), joined head to tail (M1-linked); ubiquitin unit 2 of 2 (proximal); its I44 is printed as position 120 of the chain; also called linear diUb; source: E. coli BL21(DE3), purified (HisTrap, SEC)
The description is as above.

The target in test [4] is T7, M1-linked hexaUb (His-tagged M1-Ub6) (UniProt P0CG48 1-76; P0CG48 1-76; P0CG48 1-76; P0CG48 1-76; P0CG48 1-76; P0CG48 1-76).
T7 construct: ubiquitin unit 1 of 6, joined head to tail (M1-linked); ubiquitin unit 2 of 6; ubiquitin unit 3 of 6; ubiquitin unit 4 of 6; ubiquitin unit 5 of 6; ubiquitin unit 6 of 6; source: E. coli BL21(DE3), purified (HisTrap, SEC)
The description is as above.

T1 sequence (P12004 whole entry): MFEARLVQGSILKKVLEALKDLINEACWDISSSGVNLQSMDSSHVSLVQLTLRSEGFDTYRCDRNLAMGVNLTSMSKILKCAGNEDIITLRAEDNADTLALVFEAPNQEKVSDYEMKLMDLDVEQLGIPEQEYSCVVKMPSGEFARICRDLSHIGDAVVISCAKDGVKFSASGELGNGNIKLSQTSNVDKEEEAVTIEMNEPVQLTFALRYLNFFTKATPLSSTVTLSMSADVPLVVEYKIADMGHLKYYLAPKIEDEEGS

B1: SPRTN PIP-UBZ (320-489) (domain or fragment, human, UniProt Q9H040 320-489, looked up)
chain: VSNSHQNVLSNYFPRVSFANQKAFRGVNGSPRISVTVGNIPKNSVSSSSQRRVSSSKISLRNSSKVTESASVMPSQDVSGSEDTFPNKRPRLEDKTVFDNFFIKKEQIKSSGNDPKYSTTTAQNSSSSSSQSKMVNCPVCQNEVLESQINEHLDWCLEGDSIKVKSEESL
notes: SPRTN, human, PIP box to UBZ, residues 320-489; plasmid pCold I-SPRTN-PIP-UBZ (320-489); Its purification is not described; amine-coupled to a CM5 chip for SPR
Usually Kd stands for the free concentration of one partner at which half of the binding sites on the other are occupied at equilibrium, for simple one-to-one binding. A lower Kd goes with higher affinity. With B1, in test [1], binding was put at a Kd of 12.8 ± 2 µM.

B2: SPRTN core region (26-240 aa), E112Q (domain or fragment, human, UniProt Q9H040 26-240, looked up)
chain: QESLSLVDASWELVDPTPDLQALFVQFNDQFFWGQLEAVEVKWSVRMTLCAGICSYEGKGGMCSIRLSEPLLKLRPRKDLVETLLHQMIHAYLFVTNNDKDREGHGPEFCKHMHRINSLTGANITVYHTFHDEVDEYRRHWWRCNGPCQHRPPYYGYVKRATNREPSAHDYWWAEHQKTCGGTYIKIKEPENYSKKGKGKAKLGKEPVLAAENKD
notes: SPRTN, human, residues 26-240 (MPD, ZBD and BR); plasmid pNIC28-SPRTN core (26-240), E112Q; also called SPRTN core (E112Q); SPRTN core E112Q; source: E. coli BL21(DE3), purified (Ni-NTA, TEV cleavage, SEC)
On to B2, for which the Kd with M1-linked hexaUb turned out to be 34.8 ± 3.8 µM; in the test with M1-linked diUb it was 132 ± 3.9 µM; with M1-linked tetraUb it was 69.7 ± 6.9 µM.

B3: SPRTN core region (E112Q), enzymatically inactive (domain or fragment, human, UniProt Q9H040 26-240, looked up)
chain: QESLSLVDASWELVDPTPDLQALFVQFNDQFFWGQLEAVEVKWSVRMTLCAGICSYEGKGGMCSIRLSEPLLKLRPRKDLVETLLHQMIHAYLFVTNNDKDREGHGPEFCKHMHRINSLTGANITVYHTFHDEVDEYRRHWWRCNGPCQHRPPYYGYVKRATNREPSAHDYWWAEHQKTCGGTYIKIKEPENYSKKGKGKAKLGKEPVLAAENKD
notes: SPRTN, human, residues 26-240 (plasmid pNIC28-SPRTN (26-240)), variant E112Q; also called SPRTN core (E112Q); ΔMIU, ΔC: 26–240 aa; source: E. coli BL21(DE3), purified (Ni-NTA, TEV cleavage, HisTrap flow-through, SEC)
As to B3, the results for the Kd in test [2], in test [3] and in test [4] were roughly 70 µM, roughly 132 µM and roughly 35 µM, respectively.
